In patent US20070258992A1 one finds maximum inhibition data, which are given here for one substance.

In the experiment the target is mouse synaptosomes. Put plainly: inhibition of active BoNT/A binding to synaptosomes.

The substance “inactive BoNT/A (formaldehyde-inactivated toxoid) (from UniProt P0DPI0 2-1296)” had a maximum inhibition of 98%.
